The values below come from publication PMC4491180, “Grb2 monomer–dimer equilibrium determines normal versus oncogenic function” (Nature Communications, 2015).

The target of experiment [1] is T1, wild-type Grb2 (growth factor receptor-bound protein 2), bacterially expressed and purified (UniProt P62993 1-217, Atto488 on the N-terminus of the labelled copy (100 nM); the titrated copy unlabelled).
T1 construct: cloned into a modified pET28a with a TEV site; also called ^WTGrb2; dGrb2
The experiment can be described thus: MST; monomer–dimer equilibrium of Grb2 in the presence of a saturating concentration of pShc peptide. The conditions noted are these: both partners purified.

Experiment [2] deals with T2, bacterial GFP-tagged Grb2 on GFP-trap beads (smFLIM) (UniProt P62993 1-217).
T2 construct: full-length Grb2; The second copy (FRET acceptor, added in solution) carried RFP (mRFP) instead of GFP; By the order of the cloning sites the fluorescent protein lies before Grb2; pET28a cut at NdeI may add an N-terminal His tag (surmised); also called GFP–Grb2; RFP–Grb2; source: E. coli (pET28a construct)
The experiment can be described thus: FRET or BRET; smFLIM: GFP–Grb2 on GFP-trap beads, RFP–Grb2 added for 1 h, 20 mM Tris-HCl, 50 mM NaCl, pH 8.0; then 10 μM phospho-Shc peptide for an hour. The conditions noted are these: both partners purified.

Where no end group is shown, it is not given here. [ ]: non-standard residue; d: D form. pY = N[C@@H](Cc1ccc(OP(=O)(O)O)cc1)C(=O)O

T2 sequence (P62993 whole entry): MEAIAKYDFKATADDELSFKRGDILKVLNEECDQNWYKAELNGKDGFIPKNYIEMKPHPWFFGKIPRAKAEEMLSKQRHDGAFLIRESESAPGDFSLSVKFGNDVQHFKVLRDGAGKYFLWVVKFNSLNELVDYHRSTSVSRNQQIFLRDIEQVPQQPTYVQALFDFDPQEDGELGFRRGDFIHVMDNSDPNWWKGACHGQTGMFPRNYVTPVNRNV
T1 sequence (P62993 whole entry): as above

B1: phospho-Shc peptide (peptide)
peptide: EEPPDHQ[pY]YNDFPGK
notes: Printed as EEPPDHQ(pY)YN-DFPGK; also called pShc; source: synthetic peptide, bought: GenScript
Consider B1, for which the binding result in experiment [1] and in experiment [2] was “binds” each time.
